The chains are these.
B1: GST-Ame1^1-30 (domain or fragment)
chain: {GST}-MDRDTKLAFRLRGSHSRRTDDIDDDVIVFK
B2: Mtw1 complex (recombinant four-protein complex with a deletion of the N-terminal 172 residues of Dsn1) (complex)
chain 1: MSAPTMRSTSILTEHLGYPPISLVDDIINAVNEIMYKCTAAMEKYLLSKSKIGEEDYGEEIKSGVAKLESLLENSVDKNFDKLELYVLRNVLRIPEEYLDANVFRLENQKDLVIVDENELKKSEEKLREKVNDVELAFKKNEMLLKRVTKVKRLLFTIRGFKQKLNELLKCKDDVQLQKILESLKPIDDTMTLLTDSLRKLYVDSESTSSTEEVEALLQRLKTNGKQNNKDFRTRYIDIRTNNVLRKLGLLGDKEDEKQSAKPDARTQAGDIVSIDIEEPQLDLLDDVL
chain 2: MVNSHGIRYIRLKQVFNRALDQSISKLQSWDKVSSCFPQYVNSKQGAINVANCQRQLTEFWTELCQREFKEIMEERNVEQKLNELDELILEAKERYTDRDQDEVNKGPAIDELSSKELVECHLYSQRMHAIHEIDERLAKVNEMNDQLAQELKDLETQVEVEKNEIGKMYDEYLGSHTDQPANVLLVQSLNDMVLELKENY
chain 3: MSQGQSKKLDVTVEQLRSIYHQFHDILEEKTDLHLPKKEYDDDAVRREVQIQLQEFLLSAMTMASKSLEVVNADTVGKTVKQLIMESQEKYMEPFDLDLNEQVRKMYQEWEDETVKVAQLRQTGPAKINEVYNNSKDEYLAQLDGRIGVLQARMMQQQSADHDDSTDDADDHINWEHIKQDYVASLNELYQTQQDLPKVRYNVEKVKRLMDFLEED
chain 4: HSIMPNSSLQPFYSQPTAAGGPDMTTPQNISSSQQLLPAPQLFPYGSFHQQQLQQPHYIQRTRERKKSIGSQRGRRLSMLASQANGGSTIISPHKDIPEEDFYTVVGNASFGKNLQIRQLFNWCLMRSLHKLELKAKNQEEEGELEHLTKKSKLESTKAETDYVDPKRLAMVIIKEFVDDLKKDHIAIDWEDEEKYEDEDEEKILDNTENYDDTELRQLFQENDDDDDDDDEVDYSEIQRSRRKFSERRKALPKEPKKLLPNSKNVENTKNLSILTSKVNAIKNEVKEWAVTLDTSRPDLEWQELTSFSSQPLEPLSDTEEPDLAIADVETKLETKVDELRYQSHILNSHSLALNEITNSKVNKLNIETMRKISSETDDDHSQVINPQQLLKGLSLSFSKKLDL
B3: Mtw1-Nnf1 heterodimer (complex)
chain 1: B2 chain 1
chain 2: B2 chain 2

The assay “Mtw1-Nnf1 heterodimer” addresses B3. Description: ITC. For orientation: Isothermal titration calorimetry measures the heat released or taken up as one component is titrated into another.
A further assay addresses Ndc80 complex (budding yeast, UniProt P40460;P33895;Q04477;P40014). Description: SEC.
Another assay deals with Ame1–Okp1 complex (budding yeast, UniProt P38313;P53298). The experiment in a line: ITC.

No end group written: not given here.

Chain of Ame1–Okp1 complex (P53298 whole entry, one chain of several): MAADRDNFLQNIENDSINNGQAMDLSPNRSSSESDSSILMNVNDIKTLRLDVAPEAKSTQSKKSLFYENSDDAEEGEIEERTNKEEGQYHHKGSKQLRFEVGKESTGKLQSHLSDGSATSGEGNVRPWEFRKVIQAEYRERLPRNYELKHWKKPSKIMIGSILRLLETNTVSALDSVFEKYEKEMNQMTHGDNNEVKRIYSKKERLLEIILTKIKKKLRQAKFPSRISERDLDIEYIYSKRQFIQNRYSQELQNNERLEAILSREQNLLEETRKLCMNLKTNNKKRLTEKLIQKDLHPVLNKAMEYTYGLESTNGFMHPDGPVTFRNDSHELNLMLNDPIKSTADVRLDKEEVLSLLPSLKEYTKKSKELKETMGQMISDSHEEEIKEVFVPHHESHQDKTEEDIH
Chain of Ndc80 complex (P40460 whole entry, chain 1 of 4): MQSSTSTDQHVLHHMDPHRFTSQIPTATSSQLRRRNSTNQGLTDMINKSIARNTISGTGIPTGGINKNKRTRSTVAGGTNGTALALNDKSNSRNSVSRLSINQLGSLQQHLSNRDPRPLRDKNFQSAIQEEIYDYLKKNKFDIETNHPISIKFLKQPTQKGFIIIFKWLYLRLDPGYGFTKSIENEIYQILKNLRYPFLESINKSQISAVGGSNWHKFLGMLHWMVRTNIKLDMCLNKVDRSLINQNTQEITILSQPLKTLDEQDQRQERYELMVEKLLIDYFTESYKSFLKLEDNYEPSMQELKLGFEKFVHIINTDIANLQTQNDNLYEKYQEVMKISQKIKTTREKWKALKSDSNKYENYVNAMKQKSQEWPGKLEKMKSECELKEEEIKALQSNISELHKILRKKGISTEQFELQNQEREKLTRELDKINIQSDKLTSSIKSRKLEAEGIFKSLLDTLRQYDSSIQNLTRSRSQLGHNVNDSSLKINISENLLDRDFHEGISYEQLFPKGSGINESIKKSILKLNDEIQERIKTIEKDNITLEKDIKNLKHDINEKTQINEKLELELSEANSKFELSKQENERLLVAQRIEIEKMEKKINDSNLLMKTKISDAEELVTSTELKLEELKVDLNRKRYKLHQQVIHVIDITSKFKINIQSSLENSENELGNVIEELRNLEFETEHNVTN
Chain of Ndc80 complex (P33895 whole entry, chain 2 of 4): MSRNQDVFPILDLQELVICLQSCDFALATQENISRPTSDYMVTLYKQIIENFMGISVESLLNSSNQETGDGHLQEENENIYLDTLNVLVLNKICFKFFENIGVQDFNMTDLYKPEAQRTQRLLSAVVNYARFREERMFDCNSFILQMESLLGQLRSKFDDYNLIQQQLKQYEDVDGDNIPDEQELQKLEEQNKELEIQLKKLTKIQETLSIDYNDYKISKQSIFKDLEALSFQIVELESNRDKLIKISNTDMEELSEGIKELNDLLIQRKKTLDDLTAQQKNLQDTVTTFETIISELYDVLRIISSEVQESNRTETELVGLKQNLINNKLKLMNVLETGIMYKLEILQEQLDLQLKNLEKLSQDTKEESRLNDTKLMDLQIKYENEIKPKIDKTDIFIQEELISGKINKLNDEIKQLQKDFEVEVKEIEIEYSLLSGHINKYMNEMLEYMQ
Chain of Ndc80 complex (Q04477 whole entry, chain 3 of 4): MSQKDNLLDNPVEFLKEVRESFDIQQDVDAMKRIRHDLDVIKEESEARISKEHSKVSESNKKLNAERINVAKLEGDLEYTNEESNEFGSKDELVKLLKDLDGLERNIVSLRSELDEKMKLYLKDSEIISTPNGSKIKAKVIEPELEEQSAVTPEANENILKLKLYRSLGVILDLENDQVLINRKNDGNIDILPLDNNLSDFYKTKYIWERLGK
Chain of Ndc80 complex (P40014 whole entry, chain 4 of 4): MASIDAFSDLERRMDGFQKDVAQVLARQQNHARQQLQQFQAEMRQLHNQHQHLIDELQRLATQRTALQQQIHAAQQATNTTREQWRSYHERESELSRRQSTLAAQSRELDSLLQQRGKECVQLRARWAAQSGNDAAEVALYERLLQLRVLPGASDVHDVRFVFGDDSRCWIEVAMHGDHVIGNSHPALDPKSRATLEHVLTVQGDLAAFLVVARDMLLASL

For the molecule B1, binding with Mtw1-Nnf1 heterodimer was characterised by a dissociation constant (Kd) of 1500 nM.
For B2, the binding result with Ndc80 complex is on record as “binds”.
B3: in the assay with Ame1–Okp1 complex, the Kd worked out at 1600 nM and the “stoichiometry N” value amounted to 1.

As a reminder, the Kd is the constant that tells how readily two partners part at equilibrium. A low value points to higher affinity. What is called stoichiometry N is a count of units in the complex or per binding partner.

Source of the values: publication PMC4137059 (The Journal of Cell Biology, 2014).
